Like-named read-outs stand apart in the source and are kept apart here.
Assays:
Ep-CAM [1] = target: T1, Ep-CAM (UniProt P16422 24-265, limits assumed); test: Biacore, Fab periplasmic extract
T1 construct: Amine coupled to a CM5 chip in the Biacore assays
T1 sequence (looked up): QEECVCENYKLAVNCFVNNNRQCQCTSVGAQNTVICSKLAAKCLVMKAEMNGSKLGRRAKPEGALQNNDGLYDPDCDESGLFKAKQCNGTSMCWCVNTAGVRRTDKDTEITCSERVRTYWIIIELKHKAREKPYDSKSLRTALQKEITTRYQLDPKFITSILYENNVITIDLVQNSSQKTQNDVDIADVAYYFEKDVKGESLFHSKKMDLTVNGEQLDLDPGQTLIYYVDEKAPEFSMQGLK

Ep-CAM [2] = target: T2, Ep-CAM (UniProt P16422 24-265, limits assumed); test: Biacore, Fab periplasmic extract
T2 construct: Antigen of the Biacore analysis of ING-1 variants
T2 sequence (looked up): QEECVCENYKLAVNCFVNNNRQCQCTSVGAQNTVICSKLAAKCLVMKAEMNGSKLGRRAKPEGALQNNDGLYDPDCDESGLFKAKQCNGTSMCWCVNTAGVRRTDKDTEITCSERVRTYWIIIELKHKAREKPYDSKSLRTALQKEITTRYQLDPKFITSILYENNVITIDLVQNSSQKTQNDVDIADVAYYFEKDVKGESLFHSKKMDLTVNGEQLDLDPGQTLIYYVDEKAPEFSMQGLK

| Binder | fold difference in affinity vs original (Ep-CAM [2]) [fold] | other results |
| --- | --- | --- |
| ING-1 light chain E98N (Fab, V domains shown, Fab, periplasmic extract) VH: QIQLVQSGPELKKPGETVKISCKASGYTFTKYGMNWVKQAPGKGLKWMGWINTYTEEPTYGDDFKGRFAFSLETSASTANLQINNLKSEDTATYFCARFGSAVDYWGQGTSVTVSS VL: DIVMTQAAFSNPVTLGTSGSISCRSSKSLLHSNGITYLYWYLQKPGQSPQLLIYQMSNLASGVPDRFSSSGSGTDFTLRISRVEAEDVGVYYCAQNLNLPRTFGGGTKLEMKR |  | binding result (Ep-CAM [1]): no binding |
| ING-1 heavy chain W50H (Fab, V domains shown) VH: QIQLVQSGPELKKPGETVKISCKASGYTFTKYGMNWVKQAPGKGLKWMGHINTYTEEPTYGDDFKGRFAFSLETSASTANLQINNLKSEDTATYFCARFGSAVDYWGQGTSVTVSS VL: DIVMTQAAFSNPVTLGTSGSISCRSSKSLLHSNGITYLYWYLQKPGQSPQLLIYQMSNLASGVPDRFSSSGSGTDFTLRISRVEAEDVGVYYCAQNLELPRTFGGGTKLEMKR | 0.02 |  |
| ING-1 heavy chain W50K (Fab, V domains shown) VH: QIQLVQSGPELKKPGETVKISCKASGYTFTKYGMNWVKQAPGKGLKWMGKINTYTEEPTYGDDFKGRFAFSLETSASTANLQINNLKSEDTATYFCARFGSAVDYWGQGTSVTVSS VL: DIVMTQAAFSNPVTLGTSGSISCRSSKSLLHSNGITYLYWYLQKPGQSPQLLIYQMSNLASGVPDRFSSSGSGTDFTLRISRVEAEDVGVYYCAQNLELPRTFGGGTKLEMKR | 0.04 |  |
| ING-1 heavy chain W50N (Fab, V domains shown) VH: QIQLVQSGPELKKPGETVKISCKASGYTFTKYGMNWVKQAPGKGLKWMGNINTYTEEPTYGDDFKGRFAFSLETSASTANLQINNLKSEDTATYFCARFGSAVDYWGQGTSVTVSS VL: DIVMTQAAFSNPVTLGTSGSISCRSSKSLLHSNGITYLYWYLQKPGQSPQLLIYQMSNLASGVPDRFSSSGSGTDFTLRISRVEAEDVGVYYCAQNLELPRTFGGGTKLEMKR | 0.03 |  |
| ING-1 heavy chain W50Q (Fab, V domains shown) VH: QIQLVQSGPELKKPGETVKISCKASGYTFTKYGMNWVKQAPGKGLKWMGQINTYTEEPTYGDDFKGRFAFSLETSASTANLQINNLKSEDTATYFCARFGSAVDYWGQGTSVTVSS VL: DIVMTQAAFSNPVTLGTSGSISCRSSKSLLHSNGITYLYWYLQKPGQSPQLLIYQMSNLASGVPDRFSSSGSGTDFTLRISRVEAEDVGVYYCAQNLELPRTFGGGTKLEMKR | 0.01 |  |
| ING-1 heavy chain W50R (Fab, V domains shown) VH: QIQLVQSGPELKKPGETVKISCKASGYTFTKYGMNWVKQAPGKGLKWMGRINTYTEEPTYGDDFKGRFAFSLETSASTANLQINNLKSEDTATYFCARFGSAVDYWGQGTSVTVSS VL: DIVMTQAAFSNPVTLGTSGSISCRSSKSLLHSNGITYLYWYLQKPGQSPQLLIYQMSNLASGVPDRFSSSGSGTDFTLRISRVEAEDVGVYYCAQNLELPRTFGGGTKLEMKR | 0.1 |  |
| ING-1 heavy chain W50S (Fab, V domains shown) VH: QIQLVQSGPELKKPGETVKISCKASGYTFTKYGMNWVKQAPGKGLKWMGSINTYTEEPTYGDDFKGRFAFSLETSASTANLQINNLKSEDTATYFCARFGSAVDYWGQGTSVTVSS VL: DIVMTQAAFSNPVTLGTSGSISCRSSKSLLHSNGITYLYWYLQKPGQSPQLLIYQMSNLASGVPDRFSSSGSGTDFTLRISRVEAEDVGVYYCAQNLELPRTFGGGTKLEMKR | 0.02 |  |
| ING-1 heavy chain W50Y (Fab, V domains shown) VH: QIQLVQSGPELKKPGETVKISCKASGYTFTKYGMNWVKQAPGKGLKWMGYINTYTEEPTYGDDFKGRFAFSLETSASTANLQINNLKSEDTATYFCARFGSAVDYWGQGTSVTVSS VL: DIVMTQAAFSNPVTLGTSGSISCRSSKSLLHSNGITYLYWYLQKPGQSPQLLIYQMSNLASGVPDRFSSSGSGTDFTLRISRVEAEDVGVYYCAQNLELPRTFGGGTKLEMKR | 0.04 |  |
| ING-1 heavy chain Y32E (Fab, V domains shown) VH: QIQLVQSGPELKKPGETVKISCKASGYTFTKEGMNWVKQAPGKGLKWMGWINTYTEEPTYGDDFKGRFAFSLETSASTANLQINNLKSEDTATYFCARFGSAVDYWGQGTSVTVSS VL: DIVMTQAAFSNPVTLGTSGSISCRSSKSLLHSNGITYLYWYLQKPGQSPQLLIYQMSNLASGVPDRFSSSGSGTDFTLRISRVEAEDVGVYYCAQNLELPRTFGGGTKLEMKR | 0.08 |  |
| ING-1 heavy chain Y32H (Fab, V domains shown) VH: QIQLVQSGPELKKPGETVKISCKASGYTFTKHGMNWVKQAPGKGLKWMGWINTYTEEPTYGDDFKGRFAFSLETSASTANLQINNLKSEDTATYFCARFGSAVDYWGQGTSVTVSS VL: DIVMTQAAFSNPVTLGTSGSISCRSSKSLLHSNGITYLYWYLQKPGQSPQLLIYQMSNLASGVPDRFSSSGSGTDFTLRISRVEAEDVGVYYCAQNLELPRTFGGGTKLEMKR | 0.6 |  |
| ING-1 heavy chain Y32K (Fab, V domains shown) VH: QIQLVQSGPELKKPGETVKISCKASGYTFTKKGMNWVKQAPGKGLKWMGWINTYTEEPTYGDDFKGRFAFSLETSASTANLQINNLKSEDTATYFCARFGSAVDYWGQGTSVTVSS VL: DIVMTQAAFSNPVTLGTSGSISCRSSKSLLHSNGITYLYWYLQKPGQSPQLLIYQMSNLASGVPDRFSSSGSGTDFTLRISRVEAEDVGVYYCAQNLELPRTFGGGTKLEMKR | 0.08 |  |
| ING-1 heavy chain Y32Q (Fab, V domains shown) VH: QIQLVQSGPELKKPGETVKISCKASGYTFTKQGMNWVKQAPGKGLKWMGWINTYTEEPTYGDDFKGRFAFSLETSASTANLQINNLKSEDTATYFCARFGSAVDYWGQGTSVTVSS VL: DIVMTQAAFSNPVTLGTSGSISCRSSKSLLHSNGITYLYWYLQKPGQSPQLLIYQMSNLASGVPDRFSSSGSGTDFTLRISRVEAEDVGVYYCAQNLELPRTFGGGTKLEMKR | 0.1 |  |
| ING-1 heavy chain Y32S (Fab, V domains shown) VH: QIQLVQSGPELKKPGETVKISCKASGYTFTKSGMNWVKQAPGKGLKWMGWINTYTEEPTYGDDFKGRFAFSLETSASTANLQINNLKSEDTATYFCARFGSAVDYWGQGTSVTVSS VL: DIVMTQAAFSNPVTLGTSGSISCRSSKSLLHSNGITYLYWYLQKPGQSPQLLIYQMSNLASGVPDRFSSSGSGTDFTLRISRVEAEDVGVYYCAQNLELPRTFGGGTKLEMKR | 0.01 |  |
| ING-1 heavy chain Y54D (Fab, V domains shown) VH: QIQLVQSGPELKKPGETVKISCKASGYTFTKYGMNWVKQAPGKGLKWMGWINTDTEEPTYGDDFKGRFAFSLETSASTANLQINNLKSEDTATYFCARFGSAVDYWGQGTSVTVSS VL: DIVMTQAAFSNPVTLGTSGSISCRSSKSLLHSNGITYLYWYLQKPGQSPQLLIYQMSNLASGVPDRFSSSGSGTDFTLRISRVEAEDVGVYYCAQNLELPRTFGGGTKLEMKR | 0.05 |  |
| ING-1 heavy chain Y54E (Fab, V domains shown) VH: QIQLVQSGPELKKPGETVKISCKASGYTFTKYGMNWVKQAPGKGLKWMGWINTETEEPTYGDDFKGRFAFSLETSASTANLQINNLKSEDTATYFCARFGSAVDYWGQGTSVTVSS VL: DIVMTQAAFSNPVTLGTSGSISCRSSKSLLHSNGITYLYWYLQKPGQSPQLLIYQMSNLASGVPDRFSSSGSGTDFTLRISRVEAEDVGVYYCAQNLELPRTFGGGTKLEMKR | 0.07 |  |
| ING-1 heavy chain Y54H (Fab, V domains shown) VH: QIQLVQSGPELKKPGETVKISCKASGYTFTKYGMNWVKQAPGKGLKWMGWINTHTEEPTYGDDFKGRFAFSLETSASTANLQINNLKSEDTATYFCARFGSAVDYWGQGTSVTVSS VL: DIVMTQAAFSNPVTLGTSGSISCRSSKSLLHSNGITYLYWYLQKPGQSPQLLIYQMSNLASGVPDRFSSSGSGTDFTLRISRVEAEDVGVYYCAQNLELPRTFGGGTKLEMKR | 1 |  |
| ING-1 heavy chain Y105D (Fab, V domains shown) VH: QIQLVQSGPELKKPGETVKISCKASGYTFTKYGMNWVKQAPGKGLKWMGWINTYTEEPTYGDDFKGRFAFSLETSASTANLQINNLKSEDTATYFCARFGSAVDDWGQGTSVTVSS VL: DIVMTQAAFSNPVTLGTSGSISCRSSKSLLHSNGITYLYWYLQKPGQSPQLLIYQMSNLASGVPDRFSSSGSGTDFTLRISRVEAEDVGVYYCAQNLELPRTFGGGTKLEMKR |  | binding result (Ep-CAM [2]): no binding |
| ING-1 heavy chain Y105E (Fab, V domains shown) VH: QIQLVQSGPELKKPGETVKISCKASGYTFTKYGMNWVKQAPGKGLKWMGWINTYTEEPTYGDDFKGRFAFSLETSASTANLQINNLKSEDTATYFCARFGSAVDEWGQGTSVTVSS VL: DIVMTQAAFSNPVTLGTSGSISCRSSKSLLHSNGITYLYWYLQKPGQSPQLLIYQMSNLASGVPDRFSSSGSGTDFTLRISRVEAEDVGVYYCAQNLELPRTFGGGTKLEMKR |  | binding result (Ep-CAM [2]): no binding |
| ING-1 heavy chain Y105K (Fab, V domains shown) VH: QIQLVQSGPELKKPGETVKISCKASGYTFTKYGMNWVKQAPGKGLKWMGWINTYTEEPTYGDDFKGRFAFSLETSASTANLQINNLKSEDTATYFCARFGSAVDKWGQGTSVTVSS VL: DIVMTQAAFSNPVTLGTSGSISCRSSKSLLHSNGITYLYWYLQKPGQSPQLLIYQMSNLASGVPDRFSSSGSGTDFTLRISRVEAEDVGVYYCAQNLELPRTFGGGTKLEMKR |  | binding result (Ep-CAM [2]): no binding |
| ING-1 heavy chain Y105S (Fab, V domains shown) VH: QIQLVQSGPELKKPGETVKISCKASGYTFTKYGMNWVKQAPGKGLKWMGWINTYTEEPTYGDDFKGRFAFSLETSASTANLQINNLKSEDTATYFCARFGSAVDSWGQGTSVTVSS VL: DIVMTQAAFSNPVTLGTSGSISCRSSKSLLHSNGITYLYWYLQKPGQSPQLLIYQMSNLASGVPDRFSSSGSGTDFTLRISRVEAEDVGVYYCAQNLELPRTFGGGTKLEMKR | 0.09 |  |

From US20110118131A1 (published 2011)
